The results in this text go back to patent publication WO2021160116A1 (dated 2021).

In general, EC50 refers to the concentration giving half of the maximal effect.

In the experiment the target is T1, human FcRn-β2M complex (human FcRn extracellular region with His-tagged human β2M) (human, UniProt P55899 24-297; P61769 21-119, randomly biotinylated in the ELISA (biotin-hFcRn)).
T1 construct: Purified by Ni-Sepharose and Superdex200; Used biotinylated in the ELISA and as analyte in Biacore; also called FcRn antigen; hFcRn; not shown: His tag
In words: ELISA, biotin-hFcRn on NeutrAvidin plate, pH 6.0. Background: ELISA stands for enzyme-linked immunosorbent assay.

T1 sequence (P55899 24-297 limits assumed, chain 1 of 2): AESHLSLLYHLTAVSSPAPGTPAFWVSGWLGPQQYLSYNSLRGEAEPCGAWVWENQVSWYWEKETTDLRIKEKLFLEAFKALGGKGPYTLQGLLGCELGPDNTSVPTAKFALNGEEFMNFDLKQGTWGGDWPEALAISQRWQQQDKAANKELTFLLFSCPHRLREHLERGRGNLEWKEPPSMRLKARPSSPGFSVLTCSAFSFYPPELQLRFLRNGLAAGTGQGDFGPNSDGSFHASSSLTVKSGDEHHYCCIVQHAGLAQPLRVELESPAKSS
T1 sequence (P61769 21-119 limits assumed, chain 2 of 2): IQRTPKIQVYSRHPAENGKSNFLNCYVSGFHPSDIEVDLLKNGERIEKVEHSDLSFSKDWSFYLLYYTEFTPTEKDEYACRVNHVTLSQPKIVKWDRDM

B1: Argx-113 (other)
chain: DKTHTCPPCPAPELLGGPSVFLFPPKPKDTLYITREPEVTCVVVDVSHEDPEVKFNWYVDGVEVHNAKTKPREEQYNSTYRVVSVLTVLHQDWLNGKEYKCKVSNKALPAPIEKTISKAKGQPREPQVYTLPPSRDELTKNQVSLTCLVKGFYPSDIAVEWESNGQPENNYKTTPPVLDSDGSFFLYSKLTVDKSRWQQGNVFSCSVMHEALKFHYTQKSLSLSPGK
Molecule B1 yielded an EC50 of 0.9 µg/mL.
